Assays:
Conditions in all cases: protein: recombinant; tags: N-terminal 6xHis-TEV site; tRNA fold, annealed
Min Elp3 E207A = molecular target: T1, Min Elp3 E207A (Methanocaldococcus infernus, UniProt D5VRB9 1-534, E207A); assay: EMSA; similar affinity to WT; EMSA: 250 nM tRNA, 0-20 uM Elp3, 100 mM HEPES pH 7.5, 750 mM NaCl, 25 mM DTT, 20 °C 30 min; 5% TBE gel at 4 °C
T1 sequence: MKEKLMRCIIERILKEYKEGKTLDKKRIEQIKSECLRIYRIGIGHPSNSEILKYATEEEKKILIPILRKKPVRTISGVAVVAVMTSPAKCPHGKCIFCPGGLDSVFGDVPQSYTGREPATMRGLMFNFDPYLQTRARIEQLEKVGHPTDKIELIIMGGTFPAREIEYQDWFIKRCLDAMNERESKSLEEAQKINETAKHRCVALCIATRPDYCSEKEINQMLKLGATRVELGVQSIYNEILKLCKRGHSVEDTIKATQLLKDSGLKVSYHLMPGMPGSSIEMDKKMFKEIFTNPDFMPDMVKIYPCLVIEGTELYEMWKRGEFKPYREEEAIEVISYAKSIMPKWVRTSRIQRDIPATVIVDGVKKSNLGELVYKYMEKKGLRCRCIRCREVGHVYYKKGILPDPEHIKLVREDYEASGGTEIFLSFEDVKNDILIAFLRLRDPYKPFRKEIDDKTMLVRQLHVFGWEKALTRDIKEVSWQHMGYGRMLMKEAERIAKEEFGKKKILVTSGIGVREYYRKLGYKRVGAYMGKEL

Min Elp3 K302A = molecular target: T2, Min Elp3 K302A (Methanocaldococcus infernus, UniProt D5VRB9 1-534, K302A); assay: as above
T2 sequence: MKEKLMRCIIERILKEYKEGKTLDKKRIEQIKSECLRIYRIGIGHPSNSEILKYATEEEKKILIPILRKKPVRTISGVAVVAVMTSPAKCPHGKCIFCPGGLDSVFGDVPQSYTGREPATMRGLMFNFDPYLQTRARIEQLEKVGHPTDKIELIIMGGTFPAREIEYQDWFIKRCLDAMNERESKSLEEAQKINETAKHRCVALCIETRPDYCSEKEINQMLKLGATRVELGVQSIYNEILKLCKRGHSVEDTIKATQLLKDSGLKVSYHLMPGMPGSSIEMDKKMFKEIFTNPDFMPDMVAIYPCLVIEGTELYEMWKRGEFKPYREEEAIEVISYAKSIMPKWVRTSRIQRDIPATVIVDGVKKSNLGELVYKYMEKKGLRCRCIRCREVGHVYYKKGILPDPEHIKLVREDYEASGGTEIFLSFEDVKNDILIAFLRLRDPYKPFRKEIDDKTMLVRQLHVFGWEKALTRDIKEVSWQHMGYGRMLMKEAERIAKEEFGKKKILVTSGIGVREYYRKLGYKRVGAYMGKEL

Min Elp3 Y304A = molecular target: T3, Min Elp3 Y304A (Methanocaldococcus infernus, UniProt D5VRB9 1-534, Y304A); assay: EMSA; EMSA: 250 nM tRNA, 0-20 uM Elp3, 100 mM HEPES pH 7.5, 750 mM NaCl, 25 mM DTT, 20 °C 30 min; 5% TBE gel at 4 °C
T3 sequence: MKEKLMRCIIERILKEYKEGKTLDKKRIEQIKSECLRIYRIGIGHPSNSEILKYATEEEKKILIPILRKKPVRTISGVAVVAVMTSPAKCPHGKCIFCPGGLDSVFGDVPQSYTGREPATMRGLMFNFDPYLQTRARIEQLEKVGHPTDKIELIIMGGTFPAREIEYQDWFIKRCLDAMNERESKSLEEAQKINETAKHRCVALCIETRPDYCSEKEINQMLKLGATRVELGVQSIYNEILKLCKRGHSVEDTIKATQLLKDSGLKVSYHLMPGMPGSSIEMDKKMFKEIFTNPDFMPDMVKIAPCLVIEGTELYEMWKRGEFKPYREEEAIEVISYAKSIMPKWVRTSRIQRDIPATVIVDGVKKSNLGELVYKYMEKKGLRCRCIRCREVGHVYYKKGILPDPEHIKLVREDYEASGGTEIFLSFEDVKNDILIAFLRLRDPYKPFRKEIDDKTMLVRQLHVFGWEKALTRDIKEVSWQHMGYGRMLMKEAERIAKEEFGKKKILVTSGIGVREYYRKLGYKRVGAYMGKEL

Min Elp3 M156W = molecular target: T4, Min Elp3 M156W (Methanocaldococcus infernus, UniProt D5VRB9 1-534, M156W); assay: EMSA; comparable affinity to WT; EMSA: 250 nM tRNA, 0-20 uM Elp3, 100 mM HEPES pH 7.5, 750 mM NaCl, 25 mM DTT, 20 °C 30 min; 5% TBE gel at 4 °C
T4 sequence: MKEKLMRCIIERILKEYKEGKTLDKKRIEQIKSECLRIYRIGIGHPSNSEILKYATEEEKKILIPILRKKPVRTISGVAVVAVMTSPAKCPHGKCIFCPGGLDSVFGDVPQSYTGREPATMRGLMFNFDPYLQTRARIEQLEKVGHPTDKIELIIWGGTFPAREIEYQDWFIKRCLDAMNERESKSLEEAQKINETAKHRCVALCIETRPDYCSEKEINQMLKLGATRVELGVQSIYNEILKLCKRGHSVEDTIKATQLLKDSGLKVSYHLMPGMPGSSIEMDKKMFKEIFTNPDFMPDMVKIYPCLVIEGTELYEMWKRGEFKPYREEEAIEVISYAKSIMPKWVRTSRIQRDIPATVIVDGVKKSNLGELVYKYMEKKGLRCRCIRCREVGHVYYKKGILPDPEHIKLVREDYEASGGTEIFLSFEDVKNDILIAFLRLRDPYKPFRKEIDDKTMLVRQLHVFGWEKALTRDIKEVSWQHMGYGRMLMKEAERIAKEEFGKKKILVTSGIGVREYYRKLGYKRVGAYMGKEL

Min Elp3 I154W = molecular target: T5, Min Elp3 I154W (Methanocaldococcus infernus, UniProt D5VRB9 1-534, I154W); assay: as above
T5 sequence: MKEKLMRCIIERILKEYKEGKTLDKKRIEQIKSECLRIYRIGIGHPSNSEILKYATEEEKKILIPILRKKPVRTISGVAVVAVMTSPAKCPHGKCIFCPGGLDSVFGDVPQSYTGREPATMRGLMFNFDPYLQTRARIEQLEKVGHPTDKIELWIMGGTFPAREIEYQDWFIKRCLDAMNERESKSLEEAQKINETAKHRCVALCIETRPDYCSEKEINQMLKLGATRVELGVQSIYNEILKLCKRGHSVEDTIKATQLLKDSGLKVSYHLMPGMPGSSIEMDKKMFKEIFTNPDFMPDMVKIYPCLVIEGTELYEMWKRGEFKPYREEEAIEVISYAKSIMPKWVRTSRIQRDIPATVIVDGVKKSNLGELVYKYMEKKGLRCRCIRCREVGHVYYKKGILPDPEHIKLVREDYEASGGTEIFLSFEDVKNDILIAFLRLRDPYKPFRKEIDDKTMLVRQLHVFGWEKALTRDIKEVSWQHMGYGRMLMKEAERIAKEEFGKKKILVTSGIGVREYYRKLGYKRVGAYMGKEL

B1: tRNA ArgUCU (structured_RNA)
RNA: GGACCCGUAGCCUAGCCUGGAUAGGGCACCGGCCUUCUAAGCCGGGGGUCGGGGGUUCAAAUCCCCCCGGGUCCGCCA
For B1, the binding result (Min Elp3 E207A) was “binds”, the binding result (Min Elp3 K302A) was “binds” and the binding signal (Min Elp3 Y304A) was ~1.5 fold KD increase vs WT. B1: binds (Min Elp3 M156W); binds (Min Elp3 I154W).

— article PMC13315578
